# Results as given in PMC12933331, “A Cryptic Pocket Allosterically Modulates Oligosaccharide Binding to DC-SIGN” (JACS Au, 2026).
# B1: DC-SIGN extracellular domain (ECD), wildtype, Q9NNX6 59-404 (receptor)
# chain: QVSKVPSSISQEQSRQDAIYQNLTQLKAAVGELSEKSKLQEIYQELTQLKAAVGELPEKSKLQEIYQELTRLKAAVGELPEKSKLQEIYQELTWLKAAVGELPEKSKMQEIYQELTRLKAAVGELPEKSKQQEIYQELTRLKAAVGELPEKSKQQEIYQELTRLKAAVGELPEKSKQQEIYQELTQLKAAVERLCHPCPWEWTFFQGNCYFMSNSQRNWHDSITACKEVGAQLVVIKSAEEQNFLQLQSSRSNRFTWMGLSDLNQEGTWQWVDGSPLLPSFKQYWNRGEPNNVGEEDCAEFSGNGWNDDKCNLAKFWICKKSAASCSRDEEQFLSPAPATPNPPPA
# Tests used:
# [1] = target: T1, DC-SIGN extracellular domain (ECD), wildtype, Q9NNX6; test: dynamic light scattering; purified ECDs; tetrameric state judged from mannan affinity chromatography, DLS and DSF together; conditions: remark: other sources report otherwise
# T1 chain: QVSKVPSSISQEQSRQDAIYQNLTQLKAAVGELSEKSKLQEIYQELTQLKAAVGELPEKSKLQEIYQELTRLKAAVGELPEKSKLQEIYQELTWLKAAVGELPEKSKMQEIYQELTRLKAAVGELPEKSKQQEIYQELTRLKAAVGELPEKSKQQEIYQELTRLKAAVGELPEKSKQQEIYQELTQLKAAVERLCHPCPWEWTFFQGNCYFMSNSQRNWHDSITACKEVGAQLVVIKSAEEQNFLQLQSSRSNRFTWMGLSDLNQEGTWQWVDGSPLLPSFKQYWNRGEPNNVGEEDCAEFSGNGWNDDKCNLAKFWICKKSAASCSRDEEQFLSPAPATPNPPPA
# [2] = target: T1, DC-SIGN extracellular domain (ECD), …; test: cryo-EM structure; DC-SIGN ECD, single particles; low resolution map, three of the four CRDs visibly resolved; conditions: remark: other sources report otherwise
binder,measurement,setting,value
B1,stoichiometry N,[1],4
same,stoichiometry N,[2],4
